Patent US20220362330A1, “Compositions and Methods for Increasing Epithelial Barrier Function” (The Board of Trustees of the Leland Stanford Junior …, priority 2019, published 2022)
Entries after “also recorded” stand apart in the source; their conditions may differ. Square brackets hold non-standard residues; d marks the D form. Ends that are not written are not given here. Ahx = NCCCCCC(=O)O

B1: Fc-EFNA3: Recombinant Mouse Ephrin-A3 Fc Chimera Protein, SEQ ID NO: 13 (protein)
chain: QGPGGALGNRHAVYWNSSNQHLRREGYTVQVNVNDYLDIYCPHYNSSGPGGGAEQYVLYMVNLSGYRTCNASQGSKRWECNRQHASHSPIKFSEKFQRYSAFSLGYEFHAGQEYYYISTPTHNLHWKCLRMKVFVCCASTSHSGEKPVPTLPQFTMGPNVKINVLEDFEGENPQVPKLEKSISGIEGRMDPAKTTAPSVYPLAPVCGDTTGSSVTLGCLVKGYFPEPVTLTWNSGSLSSGVHTFPAVLQSDLYTLSSSVTVTSSTWPSQSITCNVAHPASSTKVDKKIEPRGPTIKPCPPCKCPAPNLLGGPSVFIFPPKIKDVLMISLSPIVTCVVVDVSEDDPDVQISWFVNNVEVHTAQTQTHREDYNSTLRVVSALPIQHQDWMSGKEFKCKVNNKDLPAPIERTISKPKGSVRAPQVYVLPPPEEEMTKKQVTLTCMVTDFMPEDIYVEWTNNGKTELNYKNTEPVLDSDGSYFMYSKLRVEKKNWVERNSYSCSVVHEGLHNHHTTKSFSRTPGK

Experiments:
[1] = tested on: VK2/E6E7 vaginal cells; assay: DSG1 gene expression in human vaginal epithelial cell line; format: cell-based; conditions: 24 h, qRT-PCR
Protocol: VK2/E6E7 vaginal cells at 70-90% confluency were treated with indicated concentrations of EFNA3-derived peptide dimer for 24 h. Cells were harvested for RNA isolation and determination of relative DSG1 gene expression via qRT-PCR and ΔΔCt analysis.
VK2/E6E7 (ATCC® CRL-2616™) vaginal epithelial cell line was grown using ReproLife™ Reproductive Medium Complete Kit for up to 4 passages. For experiments, 10^5 cells were plated in 12-well plates. Cells reached 70-90% confluency after 24 hand were stimulated with EFNA3-like peptide dimer or vehicle. Cells were incubated for 24 h with indicated treatments. RNA was extracted and 500 ng of RNA used to generate cDNA using the SuperScript™ IV VILO™ Master Mix. Relative DSG1 (Hs00355084_m1) gene expression was calculated by normalization with the housekeeping gene glucose-6-phosphate isomerase (Hs00976711_m1) via qRT-PCR.

[2] = tested on: vaginal epithelium; assay: Vaginal epithelial integrity and thickness in OVX mice, histology; format: in vivo; conditions: ivag for 9 consecutive days, peptide dimer 10^−4 μM, Fc-EFNA3 1 μM
Protocol: Mice in estrus and OVX mice were used in these experiments. OVX mice received PBS alone, EFNA3-derived peptide dimer (10^−4 μM) or recombinant mouse Fc-EFNA3 (1 μM) via atraumatic intravaginal administration for 9 consecutive days. All mice were euthanized, and vaginal tissue processed for histological evaluation and measurement of vaginal epithelial thickness.
8-10 weeks female C57BL/6J mice were anesthetized. Dorsal skin was shaved and cleaned with 70% ethanol followed by povidone-iodine. Following appropriate sterile technique, a single dorsal skin incision was performed, followed by dissection until ovarian fat pads were identified and ovaries removed. Peritoneal and abdominal walls were sutured, and mice recovered from anesthesia. After confirmation of suppression of estrous cycle, mice were used in experiments.

[3] = tested on: desmoglein-1a (DSG1a); assay: qRT-PCR of Dsg1a gene expression in vaginal tissue; format: in vivo, mice
Protocol: (§1) To define progestin-mediated changes in mucosal permeability, vaginal tissue from mice in estrus, diestrus, or after DMPA or LNG treatment was used to measure expression of the desmosomal cadherins desmoglein-1a (DSG1a) and desmocollin-1 (DSC1).
(§2) Human ectocervical and murine vaginal tissues were immediately immersed in 1 mL of RNAlater® (Qiagen), stored for 24 h at 4° C., and stored long-term at −80° C. RNA isolated using the RNeasy Lipid Tissue Kit (Qiagen) using manufacturer's instructions was re-suspended in nuclease-free water and quantified using a NanoDrop spectrophotometer (Thermo Scientific). The following mouse primers were utilized: desmocollin 1 (Mm00496525_ml), desmoglein-1α (Mm00809994_s1), ephrinA3 (Mm01212723_g1) and pyruvate carboxylase (Mm00500992_ml) as housekeeping reference gene (all from Thermo Scientific). These human primers were used: desmoglein-1 (Hs00355084_m1) and glucose-6-phosphate isomerase (Hs00976711_m1) as a housekeeping reference gene. To define relative gene expression, 100 ng of RNA was mixed with TaqMan® RNA-to-Ct™ 1-Step Kit and adequate primer (final volume of 10 μL/well) using manufacturer's instructions (Life Technologies). qRT-PCR was performed using a Quantstudio3 Thermal Cycler, and data analyzed via Quanstudio Software (Applied Biosystems).

[4] = tested on: DSG1 protein; assay: DSG1 protein levels in vaginal tissue, immunofluorescent staining and confocal microscopy; format: in vivo, mice
Protocol: Excised mouse vaginas were formaldehyde fixed and paraffin embedded (FFPE), and 10 μm sections mounted on glass slides and de-paraffinized by sequential immersion in 100% xylene, 100% ethanol, 96% ethanol, and sterile DEPC-treated water. Antigen retrieval was performed using 10 mM sodium citrate buffer (pH 6.0) containing 0.05% Tween 20 (both Sigma-Aldrich) (20 minutes at 95° C.). After 3 PBS washes, sections were incubated overnight in 10% normal goat serum (Abcam, Cambridge Mass.) at 4° C., then incubated for 1 h at ambient temperate with rabbit anti-desmoglein-1 (clone EPR6766(B)) antibody, washed and incubated for 1 h with AlexaFluor® 488-labeled goat anti-rabbit IgG (antibodies from Abcam) (all antibodies were diluted in PBS with 1% BSA and 0.05% Tween 20). Sections were stained with DAPI and evaluated for levels of DSG1 protein (defined by calculating pixel numbers per 100 μm^2) using confocal microscopy and ImageJ software.

[5] = tested on: HSV-2; assay: Lethal genital HSV-2 infection; format: in vivo; conditions: DMPA-treated mice; 10^4 pfu of HSV-2
Protocol: Mice were sedated with xylazine (Lloyd Laboratories, Shenandoah Iowa) and ketamine hydrochloride (JHP Pharmaceuticals, LLC Rochester Mich.), and intravaginally infected with 10^4 plaque-forming units (pfu) of WT HSV-2 333 in 10 μL of RPMI. Mouse mortality was evaluated daily for 15 days.

[6] = tested on: genital mucosal barrier; assay: Murine tissue permeability assay, low molecular weight fluorescent molecules given intravaginally; format: in vivo, mice
Protocol: Effects of progestins on genital mucosal barrier permeability were evaluated by intravaginally (ivag) administering 457 Da and 70 KDa-sized fluorescent molecules to mice in estrus or diestrus-stage or after DMPA or LNG treatment. Mice were grouped as follows: untreated in estrus, untreated in diestrus, DMPA treated, or LNG treated. The mice were intravaginally administered a PBS solution containing Lucifer yellow (457 Da) and Texas-Red-conjugated dextran (70 KDa). Animals were euthanized 45 minutes later to assess vaginal tissue penetration of these molecules by confocal microscopy. […] Mucosal permeability was increased moderately by diestrus, but dramatically by DMPA or LNG. Conversely, permeability increases were negligible in estrus-stage mice and mice treated with MePRDL or DMPA and RU486. This indicates exogenous progestins increase genital mucosal permeability.
To evaluate mucosal permeability to low molecular weight molecules, indicated groups of mice were sedated, and 10 μL of a PBS solution containing 62.5 μg of dextran Texas-Red® (DR) (MW=70,000 Da) and 50 μg of Lucifer yellow CH, lithium salt (LY) (MW=457.2 Da) (both from Life Technologies) administered intravaginally. 45 minutes later, mice were euthanized, and excised vaginal tissue fixed in formaldehyde. Fixed tissue was embedded in agarose, and 200-300 μm specimens were sectioned with a vibratome. After counterstaining with 4,6-diamidino-2-phenylindole (DAPI), confocal microscopy images were acquired by sequential scanning to prevent fluorescence crossover.

[7] = tested on: desmocollin-1 (DSC1); assay: qRT-PCR of Dsc1 gene expression in vaginal tissue; format: in vivo, mice; conditions: DMPA-treated mice
Protocol: as §1, §2

[8] = tested on: anti-OVA IgE; assay: Mouse epicutaneous sensitization model of atopic dermatitis, serum anti-OVA IgE ELISA; format: in vivo, mice; conditions: 3 cycles, OVA + Fc-EFNA3 vs OVA alone
Protocol: Mice underwent epicutaneous sensitization with OVA alone or in combination with recombinant mouse Fc-EFNA3. After 3 sensitization cycles, animals were euthanized to obtain blood for serum isolation. Then, levels of serum anti-OVA IgE was determined via ELISA.
6-10 weeks old Balb/cJ mice were anesthetized. Dorsal skin was shaved, and skin tape-stripped 6 times. PBS alone, 100 μg of ovalbumin (OVA) in PBS or 100 μg OVA+recombinant mouse Fc-EFNA3 in 100 μl of PBS were added to a 1×1 cm sterile gauze that was applied directly to tape-stripped area of skin and covered with a transparent bio-occlusive dressing. This patch was left in place for a 1-week period and removed. This procedure was repeated twice with 2-week intervals between applications. After completing the 3rd skin sensitization, mice were euthanized and serum samples obtained. Serum levels of anti-OVA IgE were was determined using an in-house ELISA.

Molecule	DSG1 gene expression [1]	vaginal epithelial integrity (epithelial thickness) [2]	potency on Dsg1a expression compared to recombinant mouse Fc-EFNA3 ([3]; DMPA-treated mice, Fc-EFNA3 at 1 μM)	Dsg1a mouse vaginal expression ([3]; DMPA-treated mice, topical/ivag in PBS, 24 hours)	expression of cell-cell adhesion molecules in genital mucosal epithelium ([3]; topical administration)	homogeneity of DSG1 protein expression ([4]; 1.5 ug in 30 uL of PBS vs 0.5 ug in 10 uL of PBS)	dose that optimized levels of DSG1 protein ([4]; DMPA-treated mice, 24 hours after treatment)	DSG1 expression at higher doses ([4]; DMPA-treated mice, 24 hours, doses above 1 μg)	DSG1 protein expression, dose dependence ([4]; DMPA-treated mice, 24 hours, up to the 1 μg dose)	survival after genital HSV-2 infection [5]	genital mucosal barrier function / permeability to LMW fluorescent molecules ([6]; DMPA-treated mice, one ivag dose of 1.5 ug/30 uL)	genital mucosal barrier function (summary of the studies) ([6]; via increased expression of epithelial cell-cell adhesion molecules, especially DSG1)	dose that optimized Dsc1 gene expression ([7]; ivag 0.25, 0.5, 1 and 2.5 μg in 10 μL, six hours after treatment)	expression of Dsc1 ([7]; ivag, select doses vs Fc-control, 6 h)	serum allergen-specific (anti-OVA) IgE levels [8]	serum allergen-specific (anti-OVA) IgE levels ([8]; listed as recombinant mouse Fc-EFNA3)	dose that optimized Dsg1a gene expression ([3]; DMPA-treated mice, ivag 0.25, 0.5, 1 and 2.5 μg in 10 μL, six hours after treatment)	expression of Dsg1a ([3]; DMPA-treated mice, ivag, select doses vs Fc-control, 6 h)
RYSAFSLGYEFH-Ahx-K-HFEYGLSFASYR (RYSAFSLGYEFH[Ahx]KHFEYGLSFASYR; also: Ahx-Lys linked dimer) [EFNA3-derived peptide dimer, Ahx is aminohexanoic acid]	increase DSG1 expression; also recorded: promotes DSG1 expression	improves vaginal epithelial integrity	greater potency	promotes Dsg1a mouse vaginal expression	significantly increases													
B1		improves vaginal epithelial integrity				more homogeneous expression	0.5 µg	reduced at higher doses	dose-dependent increase	improves the survival	decreased genital mucosal permeability	enhanced genital mucosal barrier function	0.5 µg	increased expression	reduces allergen sensitization	decreased allergen-specific IgE levels	0.5 µg	increased expression
